Assay [1] deals with low affinity binding site for RTL on DR*1501-Tg mouse splenocytes. Put plainly: competition of unlabeled construct with labeled RTL1000 (280 nM) on DR*1501-Tg splenocytes; low affinity site.
Assay [2] concerns the target low affinity binding site for RTL on MHC class II deficient mouse splenocytes. In words: competition on whole cells of MHC class II knockout mice: labeled RTL1000 against increasing unlabeled RTL340; SDS-PAGE fluorescence densitometry.
Assay [3] shares this target. In words: competition of unlabeled construct with labeled RTL1000 on MHC class II deficient mouse splenocytes; low affinity site.
Assay [4] concerns mMOG-35-55-induced EAE in DR*1501-Tg mice.
Assay [5] concerns the target RTL binding sites on CD11c+ cells of DR*1501-Tg mouse blood. Put plainly: flow cytometry; blood of naive DR*1501-Tg mice 15 minutes after injection of 500 µg FITC-labeled RTL; lymphocyte gate, live cells; No RTL (pre-injection) panel 0.00%.
Assay [6] concerns the target RTL binding sites on CD19+ cells of DR*1501-Tg mouse blood. The assay is described as above.
The target in a further assay is Histone complex (Sigma). Put plainly: SPR (Biacore 3000), histone complex amine coupled to CM5 chip, RTL1000 injected; 1:1 Langmuir model with drifting baseline.
The target in assay [7] is RTL binding sites on CD3+ cells of DR*1501-Tg mouse blood. In words: flow cytometry; blood of naive DR*1501-Tg mice 15 minutes after injection of 500 µg FITC-labeled RTL; lymphocyte gate, live cells; No RTL (pre-injection) panel 0.05%.
Assay [8] has as its target RTL binding sites on CD11c+ cells of DR*1501-Tg mouse blood. In words: flow cytometry; blood of naive DR*1501-Tg mice incubated in vitro with FITC-labeled RTL (legend: 500 µg), 90 minutes post-treatment; lymphocyte gate; No RTL (pre-treatment) panel 0.00%.
Assay [9] deals with RTL binding sites on CD19+ cells of DR*1501-Tg mouse blood. The assay is described as above.
The target in assay [10] is RTL binding sites on CD3+ cells of DR*1501-Tg mouse blood. The assay is described as above.
For assay [11], the target named is CD74 (MHC class II invariant chain) of DR*1501-Tg mouse splenocytes and monocytes (mouse) (UniProt P04441).
The target of assay [12] is four-domain MHC class II from DR*1501-Tg mice (human transgene expressed in mouse). In words: direct saturation binding of FITC-labeled construct to MHC class II immuno-adsorbed on Protein L/L243 beads; one-site fit.
In assay [13] the target is high affinity binding site for RTL on DR*1501-Tg mouse splenocytes. In words: saturation binding to 2 million spleen cells on ice; urea lysis, SDS-PAGE, fluorescence densitometry; two-site fit.
Assay [14] deals with low affinity binding site for RTL on DR*1501-Tg mouse splenocytes. Described as above.
The target of assay [15] is RTL binding sites on CD11c+ cells of DR*1501-Tg mouse blood. Put plainly: flow cytometry; blood of naive DR*1501-Tg mice 15 minutes after injection of 500 µg FITC-labeled RTL; monocyte gate, live cells; No RTL (pre-injection) panel 0.12%.
For assay [16], the target named is RTL binding sites on CD19+ cells of DR*1501-Tg mouse blood. The description is as above.
Assay [17] has as its target RTL binding sites on CD3+ cells of DR*1501-Tg mouse blood. The description is as above.
In assay [18] the target is low affinity binding site for RTL on MHC class II deficient mouse splenocytes. In words: competition on whole cells of MHC class II knockout mice: labeled RTL1000 against increasing unlabeled RTL1000; SDS-PAGE fluorescence densitometry.
Assay [19] addresses RTL binding sites on CD11b+ monocytes of DR*1501-Tg mice. Put plainly: flow cytometry; naive CD11b+ monocytes incubated with 5 µg RTL1000 FITC (1 hour at 37 °C by the text); upper row of panels.
The target of assay [20] is high affinity binding site for RTL on DR*1501-Tg mouse splenocytes. Put plainly: competition of unlabeled construct with labeled RTL1000 (280 nM) on DR*1501-Tg splenocytes; high affinity site.
The target in assay [21] is RTL binding sites on CD11b+ monocytes of DR*1501-Tg mice. In words: flow cytometry; naive CD11b+ monocytes incubated with 1 µg RTL1000 FITC (1 hour at 37 °C by the text); upper row of panels.
For assay [22] the target is unchanged. Put plainly: flow cytometry; blood of naive DR*1501-Tg mice incubated in vitro with FITC-labeled RTL (legend: 500 µg), 90 minutes post-treatment; monocyte gate; No RTL (pre-treatment) panel 0.07%.
Assay [23] deals with RTL binding sites on CD19+ cells of DR*1501-Tg mouse blood. Put plainly: flow cytometry; blood of naive DR*1501-Tg mice incubated in vitro with FITC-labeled RTL (legend: 500 µg), 90 minutes post-treatment; monocyte gate; No RTL (pre-treatment) panel 0.00%.
Assay [24] addresses RTL binding sites on CD3+ cells of DR*1501-Tg mouse blood. The assay is described as above.
Assay [25] deals with RTL binding sites on CD11b+ monocytes of DR*1501-Tg mice. In words: flow cytometry; blood of naive DR*1501-Tg mice 15 minutes after injection of 500 µg FITC-labeled RTL; monocyte gate, live cells; No RTL (pre-injection) panel 0.14%.
The target is the same in assay [26]. In words: flow cytometry; blood of naive DR*1501-Tg mice 15 minutes after injection of 500 µg FITC-labeled RTL; LYMPHOCYTE gate, live cells; No RTL (pre-injection) panel 0.00%.
For assay [27], the target named is RTL binding sites on CD11c+ cells of DR*1501-Tg mouse blood. Put plainly: flow cytometry; blood of naive DR*1501-Tg mice incubated in vitro with FITC-labeled RTL (legend: 500 µg), 90 minutes post-treatment; monocyte gate; No RTL (pre-treatment) panel 0.09%.
Assay [28] concerns the target RTL binding sites on CD11b+ monocytes of DR*1501-Tg mice. In words: flow cytometry; blood of naive DR*1501-Tg mice incubated in vitro with FITC-labeled RTL (legend: 500 µg), 90 minutes post-treatment; LYMPHOCYTE gate; No RTL (pre-treatment) panel 0.00%.
In assay [29] the target is T1, CD74 (MHC class II invariant chain) of DR*1501-Tg mouse splenocytes and monocytes (mouse, UniProt P04441-2 1-215, limits assumed, surface biotinylated in the immunoprecipitation experiments).
T1 construct: Native protein from mouse cells; also called p31
T1 sequence (looked up): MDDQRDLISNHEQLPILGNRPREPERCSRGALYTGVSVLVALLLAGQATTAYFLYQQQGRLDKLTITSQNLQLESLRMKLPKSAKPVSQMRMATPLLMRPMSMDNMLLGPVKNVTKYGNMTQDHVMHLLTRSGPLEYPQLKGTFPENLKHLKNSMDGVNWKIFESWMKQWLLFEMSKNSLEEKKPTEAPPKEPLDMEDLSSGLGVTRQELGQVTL
Put plainly: competition of unlabeled DR-α1 with FITC-labeled RTL1000 (320 nM) for immunoprecipitated CD74; gel densitometry; one-site competition fit.

In assay [30] the target is T1, CD74 (MHC class II invariant chain) of …. Put plainly: direct saturation binding of FITC-labeled construct to CD74 immuno-adsorbed on Protein L/ln-1 beads; SDS-PAGE densitometry; one-site fit.
Where [31] appears, read: free peptide 10 μg i.v. daily for 5 days from onset.

Turning to RTL340 (pDR2/MBP-85-99) (peptide-MHC), the EC50 was 140 nM in assay [1] and 43.2 nM in assay [3]. Also, in [2], the IC50 (read off the curve) came out at 60 nM.
As for “mMOG-35-55 peptide: free mouse MOG-35-55 peptide, MEVGWYRSPFSRVVHLYRNGK (SEQ ID NO: 50) (Synthetic peptide - mouse MOG 35-55) [reference compound]”, in assay [4] (setting [31]), the CDI is 31.5 ± 9.8, the Incidence is on record as 5/5, the Mortality is 0 and the Onset is recorded as 11.2 ± 1.2. The same molecule had a Peak in assay [4] (setting [31]) of 3.0 ± 0.9. Also, in assay [4] (mMOG-35-55-induced EAE), the “effect on EAE (in words)” value is recorded as “did not produce significant inhibition of EAE”.
Take RTL1000 (pDR2/hMOG-35-55) (peptide-MHC): the % of cells in the upper right quadrant (CD11c APC+, RTL FITC+) came to 4.63% in assay [5], 4.4% in assay [8], 9.26% in assay [15] and 6.77% in assay [27]. Besides, the % of cells in the upper right quadrant (CD19 APC+, RTL FITC+) in assay [6] came to 0.82%; in [9] it was 1.26%; in assay [16], 3.93%; in assay [23], 5.82%. Moreover, the results for the EC50 in [1], in assay [3] and in assay [20] were 11 nM, 71.1 nM and 4000 nM, respectively. In addition, the Kd with Histone complex (Sigma) was found to be 575 nM; in [12] it was 1.14 nM; in assay [13], 2.65 nM; in [14] it was 131 nM. Also, the % of cells in the upper right quadrant (CD3 PE+, RTL FITC+) in assay [7] was 0.16%; in [10], 1.49%; in [17], 0.36%; in assay [24], 4.01%. In addition, the CD74 expression on naive CD11b+ monocytes after 1 µg RTL1000: % of cells in the upper right quadrant (CD11b APC+, CD74 PE+) in assay [11] came to 42%. Besides, the CD74 expression on naive CD11b+ monocytes after 5 µg RTL1000: % of cells in the upper right quadrant (CD11b APC+, CD74 PE+) in [11] is 9.84%. In [11], the CD74 expression on naive CD11b+ monocytes after 10 µg RTL1000: % of cells in the upper right quadrant (CD11b APC+, CD74 PE+) amounted to 7.32%. In addition, the IC50 (read off the curve) in assay [18] came out at 40 nM. Also, the % of cells in the upper right quadrant (CD11b APC+, RTL1000 FITC+) was found to be 69.5% in assay [19] and 55.8% in assay [21]. Also, the % of cells in the upper right quadrant (CD11b PE+, RTL FITC+) came out at 38.6% in [22], 44.4% in assay [25], 9.23% in [26] and 3.96% in assay [28].

B1: DR-α1 domain alone (no DR2-β1 domain or peptide) (other, UniProt P01903 26-109, looked up)
chain: IKEEHVIIQAEFYLNPDQSGEFMFDFDGDEIFHVDMAKKETVWRLEEFGRFASFEAQGALANIAVDKANLEIMTKRSNYTPITN
modifications: labeled with FITC in the direct binding assays
notes: domain: α1
In turn, B1 registered a concentration giving a half-maximal response (EC50) in [29] of 447 nM. Also, the Kd in assay [30] was found to be 2.95 nM.

These data come from patent US20150044245A1, “PARTIAL MHC CONSTRUCTS AND METHODS OF USE” (Oregon Health & Science University, priority 2012, published 2015).
